Changes are numbered by the printed parent chain. Names may count otherwise.
B1: subtilisin BPN′ (protein)
chain: AQSVPYGVSQIKAPALHSQGYTGSNVKVAVIDSGIDSSHPDLKVAGGASMVPSETNPFQDNNSHGTHVAGTVAALNNSIGVLGVAPSASLYAVKVLGADGSGQYSWIINGIEWAIANNMDVINMSLGGPSGSAALKAAVDKAVASGVVVVAAAGNEGTSGSSSTVGYPGKYPSVIAVGAVDSSNQRASFSSVGPELDVMAPGVSIQSTLPGNKYGAYNGTSMASPHVAGAAALILSKHPNWTNTQVRSSLENTTTKLGDSFYYGKGLINVQAAAQ
B2: Y217L variant of subtilisin BPN′ (protein)
chain: B1 chain with Y217L
B3: M73P D83C SSI (protein)
chain: AGEFDAPSALYAPSALVLTVGKGVSATTAAPERAVTLTCAPGPSGTHPAAGSACADLAAVGGDLNALTRGEDVMCPPVYDPVLLTVCGVWQGKRVSYERVFSNECEMNAHGSSVFAF

Columns and labels:
[1] = biological target: T1, Streptomyces Subtilisin Inhibitor (SSI), SSI-like protein produced by PG1181
T1 chain: B3 chain with P77M, C87D

[2] = biological target: protease (not named in the Ki determination); assay: enzyme inhibition kinetics with succinyl-Ala-Ala-Pro-Phe-p-nitroanilide in 50 mM Tris pH 8; steady-state rate against the rate without inhibitor; equations of Goldstein

| Binder | protease activity (hydrolysis of N-succinyl-Ala-Ala-Pro-Phe-p-nitroanilide, increase in absorbance at 410 nm) [1] | Ki [2] [nM] |
| --- | --- | --- |
| B1 | SSI inhibits subtilisin BPN′ and a Y217L variant of BPN′ | – |
| B2 | SSI inhibits subtilisin BPN′ and a Y217L variant of BPN′ | – |
| B3 | – | 3 |

— patent publication US6579698
